In patent US20210315969A1, “GLYCOPROTEINS HAVING LIPID MOBILIZING PROPERTIES AND THERAPEUTIC USES THEREOF” (Aston University, priority 2008, published 2021):

Assays:
C2Cl2 myotubes = test: ROS formation and PKR/eIF2α phosphorylation in myotubes treated with glucose; type: cell-based, murine
Source text: FIG. 21 is a graphical diagram showing ROS activity in C2Cl2 myotubes treated with various concentrations of glucose with and without ZAG. Statistically significant c, P<0.001 from control f, P<0.001 from glucose alone.
FIG. 22A is a pictorial diagram of a Western blot showing PKR in C2Cl2 myotubes treated with glucose with and without ZAG. Statistically significant c, P<0.001 from control f, P<0.001 from glucose alone.
FIG. 22B is a pictorial diagram of a Western blot showing elF2a in C2Cl2 myotubes treated with glucose with and without ZAG. Statistically significant c, P<0.001 from control f, P<0.001 from glucose alone.
It has been shown that formation of reactive oxygen species (ROS) is important in protein degradation induced by high glucose load. […] High glucose also induces activation (phosphoiylation) of PKR (FIG. 22A) and the subsequent phosphorylation of elf2α (FIG. 22B) as is seen in skeletal muscle of ob/ob mice, which was also attenuated by ZAG.

[1] = system: protein expression in adipocytes, BAT and gastrocnemius muscle; test: Western blot analysis of tissues of ob/ob mice treated with ZAG; type: in vivo
Description: Western Blot Analysis—Freshly excised gastrocnemius muscles were washed in PBS and lysed PHOSPHOSAFE™ Extraction Reagent for 5 min at room temperature followed by sonication at 4° C. The lysate was cleared by centrifugation at 18,000 g for 5 min at 4° C. and samples of cytosolic protein (5 μg) were resolved on 12% sodium dodecyl suflate-polyacrylamide gel electrophoresis at 180V for approximately 1 h. This was followed by transference to 0.45 μm nitrocellulose membranes, which were then blocked with 5% Marvel in Tris-buffered saline, pH 7.5, at 4° C. overnight. Both primary and secondary antibodies were used at a dilution of 1:1000 except anti-myosin (1:250). Incubation was for lh at room temperature, and development was by FCL. Blots were scanned by a densitometer to quantify differences.

murine myotubes = test: Protein degradation and synthesis in myotubes subjected to high glucose; type: cell-based
Description: FIGS. 18A and 18B is a graphical diagram showing phenylalanine release (FIG. 18A) and protein synthesis (FIG. 18B) in C2Cl2 myotubes treated with and without ZAG for 4 h in the presence of various concentrations of glucose. Statistically significant c, P<0.001 from control; f, P<0.001 from glucose alone.
Statistically significant b, P<0.01 and c, P<0.001 from control; e, P<0.05 and f, P<0.001 from glucose alone.
Statistically significant b, P<0.01 and c, P<0.001 from control; e, P<0.05 and f, P<:0.001 from glucose alone; I, P<0.001 from glucose+SR.
This utilizes murine myotubes subjected. to high concentrations of glucose (10 or 25 mM).

[2] = system: adipocytes and gastrocnemius muscle; test: Glucose uptake into adipocytes and gastrocnemius muscle of ob/ob mice treated with ZAG; type: in vivo; details: presence of low (1 nM) insulin
Description: (§1) Glucose (intake into Atlipocpyes Isolated adipocytes (5×10^4) were washed twice in 1 ml Krebs-Ringer bicarbonate buffer, pH 7.2 (KRBS) and further incubated for 10 min at room temperature in 0.5 ml KRBS containing 18.5MBq […]-^14CI deoxy-D-glucose and non-radioactive 2-deoxy-D-glucose to a final concentration of 0.1 mM. Uptake was terminated by the addition of 1 ml ice-cold glucose-free KRBS, and the cells were washed three times with 1 ml KRBS, lysed by addition of 0.5 ml 1 M NaOH and left for at least 1 h at room temperature before the radioactivity was determined by liquid scintillation counting.
(§2) Glucose Uptake into Gostrocneinius Muscle—Gastrocnemius muscles were incubated in Krebs-Henseleit bicarbonate butler for 45 min at 37° C. and then incubated for a further 10 min in 5 ml Krebs-Henseleit butler containing 185M Bq 2-[1-^14C]deoxy-D-glucose and non-radioactive 2-deoxy-D-glucose to a final concentration of 0.1 mM. The muscles were then removed and washed in 0.9% NaCl for 5 min followed by dissolution in 0.5 ml 1M NaOH and the radioactivity was determined by liquid scintillation counting.

[3] = Glucose and triolein oxidation, tissue glucose utilization and BAT oxygen uptake in mice treated with ZAG; type: in vivo
Source text: FIG. 12E is a graphical diagraph showing tissue Rg in ob/ob mice administered ZAG, c, p<0.001 from PBS.
FIG. 24 is a graphical diagram showing the oxidation of D-[U-^14C glucose] to ^14CO2 in ob/ob mice.
FIG. 25 is a graphical diagram showing production of ^14CO^2 from [^14C carboxy] triolein in ob/ob mice.

[4] = Interval administration / pilot scheduling study of ZAG in ob/ob mice; type: in vivo
Description: While not wanting to be limited by theory, it may be that the subjects are receiving too much ZAG or that there is receptor desensitization as is seen with TNF. A pilot study was performed with 2 mice in each group to determine optimal scheduling of ZAG delivery.

[5] = system: epididymal adipocytes, gastrocnemius muscle and BAT; test: Glucose uptake into epididymal adipocytes, gastrocnemius muscle and BAT of rats treated with ZAG; type: in vivo, Wistar rats
Description: FIG. 12D is a graphical diagram showing glucose uptake into gastrocnemius muscle and BAT of male Wistar rats after 10 days treatment with either ZAG or PBS. in the absence or presence of insulin (60 μU/ml). Differences between ZAG and PBS treated animals are shown as a, p<0.05, b, p<0.01 or c, p<0.001, while differences in the presence of insulin are shown as or f, p<0.001.
as §1, §2

[6] = system: rat epididymal adipocytes; test: Lipolytic activity in rat adipocytes; type: cell-based; details: concentrations between 233 and 700 nM
Description: Lipolytic Activity in Rat Adipocytes—White adipocytes were prepared from finely minced epididymal adipose tissue of male Wistar rats (400 g) using collagenase digestion, as described (Beck S A, et al. Production of lipolytic and proteolytic factors by a murine tumor-producing cachexia in the host. Cancer Res 47:5919-5923, 1987), Lipolytic activity was determined by incubating 10^5-2×10^5 adipocytes for 2 h in 1 ml Krebs-Ringer bicarbonate buffer, pH 7.2, and the extent of lipolysis was determined by measuring the glycerol released (Wieland O. Glycerol U V method. Methods of Enzymatic Analysis, edited by Bergmeyer H U, Academic Press, London, pp 1404-1409, 1974). Spontaneous glycerol release was measured by incubating adipocytes alone. Lipolytic activity was expressed as μmol glycerol released/10^5 adipocytes/2 h.

B1: Zinc-α2-glycoprotein (protein, listed as Homo sapiens)
chain: QENQDGRYSLTYIYTGLSKHVEDVPAFQALGSLNDLQFFRYNSKDRKSQPMGLWRQVEGMEDWKEDSQLQKAREDMETLKDIVEYYNDSNGSHVLQGRFGCEIENNRSSGAFWKYYYDGKDYIEFNKEIPAWVPFDPAAQITKQKWEAEPVYVQRAKAYLEEECPATLRKYLKYSKNILDRQDPPSVVVTSHQAPGEKKKLKCLAYDFYPGKIDVHWTRAGQVQEPELRGDVLHNGNGTYQSWVVVAVPPQDTAPYSCHVQHSSLAQPLVVPWEAS
notes: recombinant human Zinc-α2-glycoprotein, lipid mobilizing factor, expressed in HEK293F cells
glucose induced phosphorylation of PKR and eIF2α (C2Cl2 myotubes): attenuated
increase in ROS produced by glucose (C2Cl2 myotubes): completely attenuates
expression of HSL in epididymal adipocytes ([1]; 5 days ZAG): increased expression of HSL
expression of HSL in subcutaneous or visceral adipocytes ([1]; 5 days ZAG): no increase
expression of UCP1 and UCP3 in BAT and UCP3 in skeletal muscle ([1]; 5 days ZAG): increased the expression
expression of pERK ([1]; 5 days ZAG, ep, sc, vis adipose tissue): increase in expression of pERK only in ep adipose tissue
phospholipase A2 (PLA2) and p38 mitogen activated protein kinase ([1]; gastrocnemius muscle): attenuated
time ZAG expression was maintained in cultured ep adipocytes ([1]; no ZAG added to culture medium): 3 days
expression of HSL and ATGL in epididymal adipose tissue ([1]; ob/ob mice): increases the expression
actin levels ([1]; skeletal muscle): did not change
high glucose induced increase in protein degradation and depression of protein synthesis (murine myotubes; ZAG 2.5 μg/ml, glucose 10 or 25 mM): completely attenuated
protein degradation induced by 10 and 25 mM glucose (murine myotubes; myotubes): attenuated
glucose uptake into epididymal and visceral adipocytes [2]: also increased glucose uptake
glucose utilization/oxidation by brain, heart, BAT and gastrocnemius muscle [3]: increased glucose utilizationloxidation
production of 14CO2 from D-[U-14C] glucose and [14C carboxy] triolein [3]: increased production
weight loss on long-term daily administration [4]: cessation of weight loss
weight loss with break of 3-4 days followed by re-infusion [4]: continued weight loss
glucose uptake into gastrocnemius muscle and BAT ([5]; absence of insulin, vs PBS): small, non-significant increase
glucose uptake into adipocytes, ZAG versus PBS treated animals ([5]; presence of insulin (60 μU/ml)): no significant difference
glucose uptake into gastrocnemius muscle and BAT ([5]; presence of insulin (60 μU/ml)): significant increase in uptake
glycerol release [6]: dose-related increase
